Measured values from patent US20120283194.

Legend:
[1] = biological target: GST:Gli1 fragment, zinc finger DNA binding region (UniProt P08151)
Chain of GST:Gli1 fragment, zinc finger DNA binding region (P08151 235-387): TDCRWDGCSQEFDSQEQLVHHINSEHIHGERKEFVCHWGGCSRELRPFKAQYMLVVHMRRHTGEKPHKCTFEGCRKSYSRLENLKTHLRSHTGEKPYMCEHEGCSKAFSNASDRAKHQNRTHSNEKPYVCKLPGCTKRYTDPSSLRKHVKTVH

Chain of GST:Gli1 (P08151 whole entry): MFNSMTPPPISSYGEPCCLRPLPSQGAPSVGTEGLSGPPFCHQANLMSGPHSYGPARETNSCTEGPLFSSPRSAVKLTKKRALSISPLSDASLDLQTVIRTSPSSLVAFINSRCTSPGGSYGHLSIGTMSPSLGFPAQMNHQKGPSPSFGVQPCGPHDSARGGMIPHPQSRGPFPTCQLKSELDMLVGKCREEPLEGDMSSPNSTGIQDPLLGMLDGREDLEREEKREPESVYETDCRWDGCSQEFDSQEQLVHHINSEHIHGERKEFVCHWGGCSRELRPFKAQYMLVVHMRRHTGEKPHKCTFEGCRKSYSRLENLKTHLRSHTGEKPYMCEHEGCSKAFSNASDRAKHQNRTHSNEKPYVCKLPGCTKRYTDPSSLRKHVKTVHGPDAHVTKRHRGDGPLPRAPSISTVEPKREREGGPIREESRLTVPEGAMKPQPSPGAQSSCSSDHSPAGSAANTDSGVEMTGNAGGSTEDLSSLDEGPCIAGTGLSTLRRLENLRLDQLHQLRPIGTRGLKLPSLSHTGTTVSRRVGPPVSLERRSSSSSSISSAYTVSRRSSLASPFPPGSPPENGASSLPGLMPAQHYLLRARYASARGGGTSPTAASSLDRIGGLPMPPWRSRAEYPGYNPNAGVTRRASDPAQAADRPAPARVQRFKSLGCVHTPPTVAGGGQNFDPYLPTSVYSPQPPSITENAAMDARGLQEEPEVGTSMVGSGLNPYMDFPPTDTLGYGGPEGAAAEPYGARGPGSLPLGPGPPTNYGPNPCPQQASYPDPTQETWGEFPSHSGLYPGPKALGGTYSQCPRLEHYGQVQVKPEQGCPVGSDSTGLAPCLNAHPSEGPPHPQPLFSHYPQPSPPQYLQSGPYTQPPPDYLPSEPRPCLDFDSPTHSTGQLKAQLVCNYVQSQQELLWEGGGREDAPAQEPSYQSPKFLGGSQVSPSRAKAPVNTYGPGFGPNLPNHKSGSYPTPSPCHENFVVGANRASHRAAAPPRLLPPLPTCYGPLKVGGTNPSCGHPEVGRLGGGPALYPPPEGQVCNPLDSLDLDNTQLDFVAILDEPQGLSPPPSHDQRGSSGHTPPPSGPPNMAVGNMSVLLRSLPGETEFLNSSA

B1: recombinant HIS:aPKC (enzyme, UniProt P41743 2-596, looked up, species assumed)
Protein kinase C iota type: PTQRDSSTMSHTVAGGGSGDHSHQVRVKAYYRGDIMITHFEPSISFEGLCNEVRDMCSFDNEQLFTMKWIDEEGDPCTVSSQLELEEAFRLYELNKDSELLIHVFPCVPERPGMPCPGEDKSIYRRGARRWRKLYCANGHTFQAKRFNRRAHCAICTDRIWGLGRQGYKCINCKLLVHKKCHKLVTIECGRHSLPQEPVMPMDQSSMHSDHAQTVIPYNPSSHESLDQVGEEKEAMNTRESGKASSSLGLQDFDLLRVIGRGSYAKVLLVRLKKTDRIYAMKVVKKELVNDDEDIDWVQTEKHVFEQASNHPFLVGLHSCFQTESRLFFVIEYVNGGDLMFHMQRQRKLPEEHARFYSAEISLALNYLHERGIIYRDLKLDNVLLDSEGHIKLTDYGMCKEGLRPGDTTSTFCGTPNYIAPEILRGEDYGFSVDWWALGVLMFEMMAGRSPFDIVGSSDNPDQNTEDYLFQVILEKQIRIPRSLSVKAASVLKSFLNKDPKERLGCHPQTGFADIQGHPFFRNVDWDMMEQKQVVPPFKPNISGEFGLDNFDSQFTNEPVQLTPDDDDIVRKIDQSEFEGFEYINPLLMSAEECV
modifications: His tag
In the case of B1, the “in vitro kinase reaction” value [1] is reported as “aPKC phosphorylates recombinantly expressed human Gli1 DNA-binding domain”, the “in vitro kinase reaction ([g-32P]ATP, SDS-PAGE, phosphor screen)” value [1] is reported as “with the majority of the phosphorylation occurring in the zinc finger DNA binding region of Gli1” and the “in vitro kinase reaction ([g-32P]ATP, SDS-PAGE, phosphor screen)” value (GST:Gli1) is reported as “aPKC phosphorylates Gli1 (FIG. 3i)”.
